For this assay, the target named is osteopontin (UniProt P10451).
Sequence of UniProt P10451 (P10451 17-314): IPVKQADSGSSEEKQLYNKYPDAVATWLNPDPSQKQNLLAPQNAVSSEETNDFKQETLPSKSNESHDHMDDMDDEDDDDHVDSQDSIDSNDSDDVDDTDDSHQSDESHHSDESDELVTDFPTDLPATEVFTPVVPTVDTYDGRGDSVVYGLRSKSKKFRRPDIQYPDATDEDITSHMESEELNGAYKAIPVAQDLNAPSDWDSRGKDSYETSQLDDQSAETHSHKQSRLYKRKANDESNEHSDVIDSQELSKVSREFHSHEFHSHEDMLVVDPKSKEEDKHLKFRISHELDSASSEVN

As for integrin alpha v (αV) (receptor), the PDGF-BB-stimulated fibroblast migration on osteopontin (monolayer wound closure, 24 h): inhibition by integrin αV blocking antibody in the panel of integrin blocking antibodies (Fig. 3B) is 92% and the PDGF-BB-stimulated fibroblast migration on osteopontin (monolayer wound closure, 24 h): reduction by integrin αV blocking antibody compared to control IgG (Fig. 3A) was 91%.

These data come from article PMC5387740.
